Experiments:
[1] = target: taxol-stabilized microtubules (MTs); assay: 30 mM KCl
[2] = target: taxol-stabilized microtubules (MTs); assay: 100 mM KCl
[3] = target: taxol-stabilized microtubules (MTs); assay: 200 mM KCl

Chain of taxol-stabilized microtubules (MTs) (chain, as listed by the source, chain 1 of 2): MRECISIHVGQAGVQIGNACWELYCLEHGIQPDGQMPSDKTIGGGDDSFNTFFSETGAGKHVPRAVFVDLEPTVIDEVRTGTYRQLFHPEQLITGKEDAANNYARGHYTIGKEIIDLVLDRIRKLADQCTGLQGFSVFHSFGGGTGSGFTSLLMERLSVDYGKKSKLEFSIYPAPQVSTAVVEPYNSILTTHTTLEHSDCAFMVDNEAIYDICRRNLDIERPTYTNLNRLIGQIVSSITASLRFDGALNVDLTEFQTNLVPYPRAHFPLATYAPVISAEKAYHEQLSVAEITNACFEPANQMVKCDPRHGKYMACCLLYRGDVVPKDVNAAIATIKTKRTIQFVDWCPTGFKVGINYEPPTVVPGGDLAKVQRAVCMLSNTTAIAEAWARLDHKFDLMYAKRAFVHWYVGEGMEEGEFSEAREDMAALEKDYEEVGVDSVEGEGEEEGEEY
Chain of taxol-stabilized microtubules (MTs) (chain, as listed by the source, chain 2 of 2): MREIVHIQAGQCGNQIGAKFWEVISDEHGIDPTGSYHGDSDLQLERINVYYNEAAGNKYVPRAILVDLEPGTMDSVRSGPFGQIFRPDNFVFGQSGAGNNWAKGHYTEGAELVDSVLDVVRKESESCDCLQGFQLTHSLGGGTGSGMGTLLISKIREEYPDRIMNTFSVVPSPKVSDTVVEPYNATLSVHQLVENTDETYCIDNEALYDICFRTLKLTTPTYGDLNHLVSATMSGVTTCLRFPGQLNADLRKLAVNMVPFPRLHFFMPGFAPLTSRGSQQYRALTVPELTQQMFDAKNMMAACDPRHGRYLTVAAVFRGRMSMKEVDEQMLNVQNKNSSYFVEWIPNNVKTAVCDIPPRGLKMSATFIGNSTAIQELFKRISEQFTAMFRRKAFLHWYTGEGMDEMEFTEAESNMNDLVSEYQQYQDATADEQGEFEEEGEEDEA

B1: MBP-Kif18A^tail-His6 (tail of Xl_Kif18A, aa 846-953) (domain or fragment)
chain: PSYMAMTSAAERKRKLLSLAGNSAVKEDSVPLPTAKRVRQDIALDCKALRVQRVAAGTTRSKDNCARRRLPKSVSEGALGVKTKPFSFQGSAQLLFQGGKKKAALKDP
B1 was tested, and the Kd [1] was 340 nM, the Kd [2] was 770 nM and the Kd [3] was 3010 nM.

From PMC5399559 (2017)
